Measurements: US20260000780A1, “B-LYMPHOCYTE SPECIFIC AMATOXIN ANTIBODY CONJUGATES” (priority 2021, published 2026)

B1: conjugate XXVI (conjugate)
heavy: EIQLQQSGPELVKPGASVKVSCKASGYSFTDYNMYWVKQSHGKSLEWIGYIDPYNGDTTYNQKFKGKATLTVDKSSSTAFIHLNSLTSEDSAVYYCARSPYGHYAMDYWGQGTSVTVSSASTKGPSVFPLAPSSKSTSGGTAALGCLVKDYFPEPVTVSWNSGALTSGVHTFPAVLQSSGLYSLSSVVTVPSSSLGTQTYICNVNHKPSNTKVDKKVEPKSCDKTHTCPPCPAPEAAGGPSVFLFPPKPKDTLMISRTPEVTCVVVCVSHEDPEVKFNWYVDGVEVHNAKTKPREEQYNSTYRVVSVLTVLHQDWLNGKEYKCKVSNKALPAPIEKTISKAKGQPREPQVYTLPPSREEMTKNQVSLTCLVKGFYPSDIAVEWESNGQPENNYKTTPPVLDSDGSFFLYSKLTVDKSRWQQGNVFSCSVMHEALHNHYTQKSLSLSPGK
light: DIVMTQSHKLLSTSVGDRVSITCKASQDVSTAVDWYQQKPGQSPKLLINWASTRHTGVPDRFTGSGSGTDYTLTISSMQAEDLALYYCRQHYSTPFTFGSGTKLEIKRTVAAPSVFIFPPSDEQLKSGTASVVCLLNNFYPREAKVQWKVDNALQSGNSQESVTEQDSKDSTYSLSSTLTLSKADYEKHKVYACEVTHQGLSSPVTKSFNRGEC
B2: Conjugate XXIV (conjugate)
heavy: B1 heavy
light: B1 light
B3: Conjugate XXV (conjugate)
heavy chain: B1 heavy
light chain: B1 light

Key:
[1] = test system: MEC-2 tumor xenograft; assay: Disseminated MEC-2 tumor xenograft model; format: in vivo, CB17 Scid mice; conditions: day 138 after treatment
Description: Cytotoxic efficacy studies in vivo were performed using various anti-CD37 antibody amatoxin conjugates in a disseminated MEC-2 tumor xenograft model over 140 days of treatment.
Tumor cell inoculation was done on day −3 by i.v. injection of 2.5×10^6 MEC-2 cells in CB17 Scid mice. Treatment was performed on day 0 by single dose i.v. injection at maximum tolerable dose (MTD) of ⅛ and MTD of 1/16 doses, respectively. Readout of the study was body weight and survival. Results are shown in FIG. 10 (body weight) and FIG. 11 (survival) at day 138 after treatment. All groups treated with conjugate gained body weight as normal, in contrast to the control group.
Treatment groups are defined in Table 4. Group 10 (chHH1-HDP-LALA-D265C, p.o., single dose; 10 mg/kg) was excluded from analysis. Group 11 (Ibrutinib) was treated with Ibrutinib p.o. 5x/w for 3 weeks at a dose 25 mg/kg.

[2] = molecular target: RNA-polymerase II (Homo sapiens, UniProt P24928+P30876); conditions: read-out: KD of the complex between amanitin and RNA-polymerase II; cited from earlier work
[3] = test system: Richter syndrome cells (PDX RS1316); assay: Richter's syndrome patient-derived xenograft (PDX) model, intravenous; format: in vivo, CB17 Scid mice; conditions: for efficacy in treating RS / tolerability of a single dose: single dose at different doses, 15 days post engraftment
From the text: The patient-derived xenograft (PDX) model for Richter's syndrome were adapted from Cancer Res (2018); 78 (13); 3413-20 with modifications.
Briefly, a total of 2×10^7 primary Richter syndrome cells from peripheral blood or lymph nodes were resuspended in Matrigel (BD Biosciences) and subcutaneously injected (double flank) in 8-week old CB17 Scid mice immunocompromised mice and left to engraft. Tumor masses were then collected, partially disrupted, and tumor cells reinjected as a single-cell suspension in Matrigel. These steps were repeated several times to obtain stable models of Richter syndrome.
For the intravenous model, 10^7 Richter syndrome cells purified from tumor masses were resuspended in PBS and injected in the tail vein of the mice. Mice were injected with a single dose of the conjugates XXIII, XXIV, or XXVI as indicated. All mice within the PBS control group died within 68 days post engraftment. One animal in the group receiving conjugate XXVI at a dose of 5 mg/kg i.v. died at day 90 post engraftment.
To assess residual RS disease activity in the organs of engrafted animals mice were euthanized and peripheral blood and organs (kidneys, spleen, bone marrow, lung, liver, and brain) collected and disease spread evaluated by flow cytometry, using anti-human antibodies (CD45PerCPCy5.5/CD19APC/CD20FITC).

[4] = test system: Raji-Luc tumor xenograft; assay: Disseminated Raji-Luc tumor xenograft model; format: in vivo, CB17 Scid mice; conditions: single dose i.v., day 89 after treatment
Description: Cytotoxic efficacy studies in vivo were performed using various anti-CD37 antibody amatoxin conjugates in a disseminated Raji-Luc tumor xenograft model over 89 days of treatment.
Tumor cell inoculation was done on day-3 by i.v. injection of 2.5×10^6 Raji-Luc cells in CB17 Scid mice. Treatment was performed on day 0 by single dose i.v. injection at maximum tolerable dose (MTD) of 1/16 and MTD of 1/64 doses of cynomolgus MTD, respectively. Readout of the study was body weight, bioluminescence and survival. Results are shown in FIG. 10 (body weight), FIG. 11 (bioluminescence) and FIG. 12 (survival) at day 89 after treatment. All groups treated with conjugate gained body weight as normal, in contrast to the control group.

Molecule | efficacy in treating RS [3] | tolerability of a single dose [3] | Alive animals ([4]; 0.188 mg/kg (MTD 1/64)) | Alive animals ([4]; 0.75 mg/kg (MTD 1/16)) | further results
C=CC(=O)N1CCC[C@@H](n2nc(-c3ccc(Oc4ccccc4)cc3)c3c(N)ncnc32)C1 [Ibrutinib, reference compound] |  |  |  |  | Alive animals ([1]; 25 mg/kg p.o. 5×/w for 3 weeks): 0/10
amanitin |  |  |  |  | Kd [2]: 3 nM
B1 | effective in treating RS | well tolerated |  |  | animals that died in the treated group ([3]; 5 mg/kg i.v. single dose, n=4, death at day 90 post engraftment): One animal
B2 | effective in treating RS | well tolerated | 9/10 | 10/10 | residual RS disease activity in organs (flow cytometry CD45/CD19/CD20) ([3]; single dose, 5 mg): significantly reduce; Alive animals ([1]; 1.25 mg/kg (MTD 1/16), i.v. single dose): 4/10; Alive animals ([1]; 2.5 mg/kg (MTD 1/8), i.v. single dose): 6/10
B3 |  |  | 9/10 | 10/10 | Alive animals ([1]; 0.94 mg/kg (MTD 1/16), i.v. single dose): 8/10; Alive animals ([1]; 1.88 mg/kg (MTD 1/8), i.v. single dose): 9/10
